{
  "source": "patent US20210388087A1",
  "about": "(Chugai, published 2021)",
  "binders": {"B1": {"name": "H183/L072 VH M34G (antibody, name in Kabat numbering, V domains shown)", "VH": "QVQLVESGGGLVQPGRSLRLSCAASGFTFSNAWGHWVRQAPGKGLEWVAQIKDKGNAYAAYYAPSVKGRFTISRDDSKNSIYLQMNSLKTEDTAVYYCHYVHYASASTVLPAFGVDAWGQGTTVTVSS", "VL": "DIVMTQSPLSLPVTPGEPASISCQASQELVHMNRNTYLHWYQQKPGQAPRLLIYKVSNRFPGVPDRFSGSGSGTDFTLKISRVEAEDVGVYYCAQGTSVPFTFGQGTKLEIK"}, "B2": {"name": "H183/L072 VH M34H (antibody, name in Kabat numbering, V domains shown)", "VH": "B1 VH with G34H", "VL": "B1 VL"}, "B3": {"name": "H183/L072 VH M34I (antibody, name in Kabat numbering, V domains shown)", "VH": "B1 VH with G34I", "VL": "B1 VL"}, "B4": {"name": "H183/L072 VH M34K (antibody, name in Kabat numbering, V domains shown)", "VH": "B1 VH with G34K", "VL": "B1 VL"}, "B5": {"name": "H183/L072 VH M34L (antibody, name in Kabat numbering, V domains shown)", "VH": "B1 VH with G34L", "VL": "B1 VL"}, "B6": {"name": "H183/L072 VH M34N (antibody, name in Kabat numbering, V domains shown)", "VH": "B1 VH with G34N", "VL": "B1 VL"}, "B7": {"name": "H183/L072 VH M34P (antibody, name in Kabat numbering, V domains shown)", "VH": "B1 VH with G34P", "VL": "B1 VL"}, "B8": {"name": "H183/L072 VH M34Q (antibody, name in Kabat numbering, V domains shown)", "VH": "B1 VH with G34Q", "VL": "B1 VL"}, "B9": {"name": "H183/L072 VH M34R (antibody, name in Kabat numbering, V domains shown)", "VH": "B1 VH with G34R", "VL": "B1 VL"}, "B10": {"name": "H183/L072 VH M34S (antibody, name in Kabat numbering, V domains shown)", "VH": "B1 VH with G34S", "VL": "B1 VL"}, "B11": {"name": "H183/L072 VH M34T (antibody, name in Kabat numbering, V domains shown)", "VH": "B1 VH with G34T", "VL": "B1 VL"}, "B12": {"name": "H183/L072 VH M34V (antibody, name in Kabat numbering, V domains shown)", "VH": "B1 VH with G34V", "VL": "B1 VL"}, "B13": {"name": "H183/L072 VH M34W (antibody, name in Kabat numbering, V domains shown)", "VH": "B1 VH with G34W", "VL": "B1 VL"}, "B14": {"name": "H183/L072 VH M34Y (antibody, name in Kabat numbering, V domains shown)", "VH": "B1 VH with G34Y", "VL": "B1 VL"}, "B15": {"name": "H183/L072 VH N31A (antibody, name in Kabat numbering, V domains shown)", "VH": "B1 VH with N31A, G34M", "VL": "B1 VL"}, "B16": {"name": "H183/L072 VH N31D (antibody, name in Kabat numbering, V domains shown)", "VH": "B1 VH with N31D, G34M", "VL": "B1 VL"}, "B17": {"name": "H183/L072 VH N31E (antibody, name in Kabat numbering, V domains shown)", "VH": "B1 VH with N31E, G34M", "VL": "B1 VL"}, "B18": {"name": "H183/L072 VH N31F (antibody, name in Kabat numbering, V domains shown)", "VH": "B1 VH with N31F, G34M", "VL": "B1 VL"}, "B19": {"name": "H183/L072 VH N31G (antibody, name in Kabat numbering, V domains shown)", "VH": "B1 VH with N31G, G34M", "VL": "B1 VL"}, "B20": {"name": "H183/L072 VH N31H (antibody, name in Kabat numbering, V domains shown)", "VH": "B1 VH with N31H, G34M", "VL": "B1 VL"}, "B21": {"name": "H183/L072 VH N31I (antibody, name in Kabat numbering, V domains shown)", "VH": "B1 VH with N31I, G34M", "VL": "B1 VL"}, "B22": {"name": "H183/L072 VH N31K (antibody, name in Kabat numbering, V domains shown)", "VH": "B1 VH with N31K, G34M", "VL": "B1 VL"}, "B23": {"name": "H183/L072 VH N31L (antibody, name in Kabat numbering, V domains shown)", "VH": "B1 VH with N31L, G34M", "VL": "B1 VL"}, "B24": {"name": "H183/L072 VH N31M (antibody, name in Kabat numbering, V domains shown)", "VH": "B1 VH with N31M, G34M", "VL": "B1 VL"}, "B25": {"name": "H183/L072 VH N31P (antibody, name in Kabat numbering, V domains shown)", "VH": "B1 VH with N31P, G34M", "VL": "B1 VL"}, "B26": {"name": "H183/L072 VH N31Q (antibody, name in Kabat numbering, V domains shown)", "VH": "B1 VH with N31Q, G34M", "VL": "B1 VL"}, "B27": {"name": "H183/L072 VH N31R (antibody, name in Kabat numbering, V domains shown)", "VH": "B1 VH with N31R, G34M", "VL": "B1 VL"}, "B28": {"name": "H183/L072 VH N31S (antibody, name in Kabat numbering, V domains shown)", "VH": "B1 VH with N31S, G34M", "VL": "B1 VL"}, "B29": {"name": "H183/L072 VH N31T (antibody, name in Kabat numbering, V domains shown)", "VH": "B1 VH with N31T, G34M", "VL": "B1 VL"}, "B30": {"name": "H183/L072 VH N31V (antibody, name in Kabat numbering, V domains shown)", "VH": "B1 VH with N31V, G34M", "VL": "B1 VL"}, "B31": {"name": "H183/L072 VH N31W (antibody, name in Kabat numbering, V domains shown)", "VH": "B1 VH with N31W, G34M", "VL": "B1 VL"}, "B32": {"name": "H183/L072 VH N31Y (antibody, name in Kabat numbering, V domains shown)", "VH": "B1 VH with N31Y, G34M", "VL": "B1 VL"}, "B33": {"name": "H183/L072 VH N53A (antibody, name in Kabat numbering, V domains shown)", "VH": "B1 VH with G34M, N56A", "VL": "B1 VL"}, "B34": {"name": "H183/L072 VH N53D (antibody, name in Kabat numbering, V domains shown)", "VH": "B1 VH with G34M, N56D", "VL": "B1 VL"}, "B35": {"name": "H183/L072 VH N53E (antibody, name in Kabat numbering, V domains shown)", "VH": "B1 VH with G34M, N56E", "VL": "B1 VL"}, "B36": {"name": "H183/L072 VH N53F (antibody, name in Kabat numbering, V domains shown)", "VH": "B1 VH with G34M, N56F", "VL": "B1 VL"}, "B37": {"name": "H183/L072 VH N53G (antibody, name in Kabat numbering, V domains shown)", "VH": "B1 VH with G34M, N56G", "VL": "B1 VL"}, "B38": {"name": "H183/L072 VH N53H (antibody, name in Kabat numbering, V domains shown)", "VH": "B1 VH with G34M, N56H", "VL": "B1 VL"}, "B39": {"name": "H183/L072 VH N53I (antibody, name in Kabat numbering, V domains shown)", "VH": "B1 VH with G34M, N56I", "VL": "B1 VL"}, "B40": {"name": "H183/L072 VH N53K (antibody, name in Kabat numbering, V domains shown)", "VH": "B1 VH with G34M, N56K", "VL": "B1 VL"}, "B41": {"name": "H183/L072 VH N53L (antibody, name in Kabat numbering, V domains shown)", "VH": "B1 VH with G34M, N56L", "VL": "B1 VL"}, "B42": {"name": "H183/L072 VH N53M (antibody, name in Kabat numbering, V domains shown)", "VH": "B1 VH with G34M, N56M", "VL": "B1 VL"}, "B43": {"name": "H183/L072 VH N53P (antibody, name in Kabat numbering, V domains shown)", "VH": "B1 VH with G34M, N56P", "VL": "B1 VL"}, "B44": {"name": "H183/L072 VH N53Q (antibody, name in Kabat numbering, V domains shown)", "VH": "B1 VH with G34M, N56Q", "VL": "B1 VL"}, "B45": {"name": "H183/L072 VH N53R (antibody, name in Kabat numbering, V domains shown)", "VH": "B1 VH with G34M, N56R", "VL": "B1 VL"}},
  "note": "Where a chain is given by its changes, count along the chain named. Names may count otherwise.",
  "data": [
    {"target": "T1, Human CD3eg linker (human)", "T1 construct": "Single chain: epsilon and gamma subunits of human CD3 joined by a 29-mer linker, Flag-tag at the C-terminus; also called recombinant human CD3", "T1 chain": "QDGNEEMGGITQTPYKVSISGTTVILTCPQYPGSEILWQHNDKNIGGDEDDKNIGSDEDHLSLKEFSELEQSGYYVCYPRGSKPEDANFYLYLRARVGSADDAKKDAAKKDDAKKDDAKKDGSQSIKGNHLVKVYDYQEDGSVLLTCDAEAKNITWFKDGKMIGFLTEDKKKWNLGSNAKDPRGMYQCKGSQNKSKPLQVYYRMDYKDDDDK", "experiment": "Biacore SPR, vs template H183/L072", "units": {"fold change of affinity": "fold"}, "values": [
      {"binder": "B1", "fold change of affinity": 0},
      {"binder": "B2", "fold change of affinity": 0},
      {"binder": "B3", "fold change of affinity": 0.6},
      {"binder": "B4", "fold change of affinity": 0},
      {"binder": "B5", "fold change of affinity": 0.7},
      {"binder": "B6", "fold change of affinity": 0},
      {"binder": "B7", "fold change of affinity": 0},
      {"binder": "B8", "fold change of affinity": 0},
      {"binder": "B9", "fold change of affinity": 0},
      {"binder": "B10", "fold change of affinity": 0},
      {"binder": "B11", "fold change of affinity": 0},
      {"binder": "B12", "fold change of affinity": 0.1},
      {"binder": "B13", "fold change of affinity": 0},
      {"binder": "B14", "fold change of affinity": 0},
      {"binder": "B15", "fold change of affinity": 0.4},
      {"binder": "B16", "fold change of affinity": 0.1},
      {"binder": "B17", "fold change of affinity": 0},
      {"binder": "B18", "fold change of affinity": 0.5},
      {"binder": "B19", "fold change of affinity": 0.3},
      {"binder": "B20", "fold change of affinity": 0.3},
      {"binder": "B21", "fold change of affinity": 0.5},
      {"binder": "B22", "fold change of affinity": 0.4},
      {"binder": "B23", "fold change of affinity": 0.2},
      {"binder": "B24", "fold change of affinity": 0.2},
      {"binder": "B25", "fold change of affinity": 0.1},
      {"binder": "B26", "fold change of affinity": 0.2},
      {"binder": "B27", "fold change of affinity": 0.5},
      {"binder": "B28", "fold change of affinity": 0.5},
      {"binder": "B29", "fold change of affinity": 0.6},
      {"binder": "B30", "fold change of affinity": 0.5},
      {"binder": "B31", "fold change of affinity": 0.4},
      {"binder": "B32", "fold change of affinity": 0.3},
      {"binder": "B33", "fold change of affinity": 0.7},
      {"binder": "B34", "fold change of affinity": 0.4},
      {"binder": "B35", "fold change of affinity": 0.5},
      {"binder": "B36", "fold change of affinity": 0.8},
      {"binder": "B37", "fold change of affinity": 0.4},
      {"binder": "B38", "fold change of affinity": 1.1},
      {"binder": "B39", "fold change of affinity": 0.4},
      {"binder": "B40", "fold change of affinity": 0.6},
      {"binder": "B41", "fold change of affinity": 0.6},
      {"binder": "B42", "fold change of affinity": 0.5},
      {"binder": "B43", "fold change of affinity": 0},
      {"binder": "B44", "fold change of affinity": 0.5},
      {"binder": "B45", "fold change of affinity": 0.8}
    ]}
  ]
}
